Data taken from US6750057 (UNIVERSITY OF FLORIDA, dated 2004).

Target: Native MBP (UniProt P0AEX9 27-392 = MBP)
Test: in vitro pull-down on amylose resin, SDS-PAGE and autoradiography
Procedure: The ^35S-labeled XA21 kinase was then incubated with resin-bound MBP or MBP fusion proteins (1 ug) in the binding buffer [20 mM Hepes (pH 7.4), 1 mM EDTA, 5 mM MgCl_2, 1 mM DTT, 0.1% Triton X-100, 1 mg/ml BSA, 1× complete protease inhibitors (Roche Diagnostics)] for 120 min at 4° C. with gentle shaking. After washing with the washing buffer [20 mM Hepes (pH 7.4), 1 mM EDTA, 5 mM MgCl_2, 1 mM DTT, 0.1% Triton X-100] five times, the bound proteins were eluted with the washing buffer supplemented with 10 mM maltose and resolved by 8% SDS-PAGE according to Laemmli. Laemmli, Nature 227, 680 (1970). The gel was stained with Coomassie brilliant blue R-250, dried, and exposed to X-ray film.

B1: 35S-labeled XA21 kinase (enzyme)
chain: HKRTKKGAPSRTSMKGHPLVSYSQLVKATDGFAPTNLLGSGSFGSVYKGKLNIQDHVAVKVLKLENPKALKSFTAECEALRNMRHRNLVKIVTICSSIDNRGNDFKAIVYDFMPNGSLEDWIHPETNDQADQRHLNLHRRVTILLDVACALDYLHRHGPEPVVHCDIKSSNVLLDSDMVAHVGDFGLARILVDGTSLIQQSTSSMGFIGTIGYAAPEYGVGLIASTHGDIYSYGILVLEIVTGKRPTDSTFRPDLGLRQYVELGLHGRVTDVVDTKLILDSENWLNSTNNSPCRRITECIVWLLRLGLSCSQELPSSRTPTGDIIDELNAIKQNLSGLFPVCEGGSLEF
modifications: 35S-methionine labelled by in vitro transcription/translation. The label does not change the letters.
notes: Made with the TnT kit from a pET-28a construct; also called XA21 protein labeled with 35S; not shown: Vector-encoded N-terminal leader of pET-28a (His/T7 tag and the few residues from the BamHI/SalI primer sites)
  binding result: no binding (tested: 1 ug resin-bound protein)
